Experimental data from the supplement of paper PMC12783771.
± gives the standard deviation of the averaged measurements.

B1: library; numbered along this chain (parent)
chain: MNIQIGELAKRTACPVVTIRFYEQEGLLPPPGRSRGNFRLYGEEHVERLQFIRHCRSLDMPLSDVRTLLSYRKRPDQDCGEVNMLLDEHIRQVESRIGALLELKHHLVELREACSGARPAQSCGILQGLSDCVCDTRGTTAHPSD

Experiments:
[1] = variants of: B1; assay: sfGFP reporter fluorescence (15 h) (µM FITC); higher = higher leak; conditions: library round: Round 1; ligand: none
Experimental: (§1)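 Cell-free biosensing: 1 µL Echo-assembled CFE reactions with linear PbrR variant templates (5 nM) and pPbrR-sfGFP reporter, with 1 µM Pb, 30 µM Zn or no ligand; endpoint sfGFP fluorescence after 15 h at 30 °C calibrated as µM FITC. Round 1 ML-predicted PbrR mutants; 3 biological replicates.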

[2] = variants of: B1; assay: sfGFP reporter fluorescence (15 h) (µM FITC); higher = stronger transcriptional activation; conditions: library round: Round 1
Experimental: as §1

Variant	sfGFP reporter fluorescence [1]	sfGFP reporter fluorescence ([2]; ligand: 1 µM Pb)	sfGFP reporter fluorescence ([2]; ligand: 30 µM Zn)
MNIQIGELAKRTACAVVTIRFYEQEGLLPPPGRSRGNFRLYGEEHVERLQFIRHCRSLDMNLSDVRTLLSYRKRPDQDCGEVNMLLDEHIRQVESRIGALLELKHHLVELREACSGARPAQSCGILQGLSDCVCDTRGTTAHPSD [P15A P61N]	0.0831 ± 0.0029	0.12 ± 0.017	0.573 ± 0.031
MNIQIGELAKRTACAVVTIRFYEQEGLLPPPGRSRGNFRLYGEEHVERLQFIRHCRSLDMLLSDVRTLLSYRKRPDQDCGEVNMLLDEHIRQVESRIGALLELKHHLVELREACSGARPAQSCGILQGLSDCVCDTRGTTAHPSD [P15A P61L]	0.0735 ± 0.0017	0.0722 ± 0.0038	0.0794 ± 0.002
MNIQIGELAKRTACPCVTIRFYEQEGLLPPPGRSRGNFRLYGEEHYERLQFIRHCRSLDMPLSDVRTLLSYRKRPDQDCGEVNMLLDEHIRQVESRIGALLELKHHLVELREACSGARPAQSCGILQGLSDCVCDTRGTTAHPSD [V16C V46Y]	0.0651 ± 0.0018	0.07452 ± 0.00021	0.0793 ± 0.0053
MNIQIGELAKRTACPCVTIRFYEQEGLLPPPGRSRGNFRLYGEEHCERLQFIRHCRSLDMPLSDVRTLLSYRKRPDQDCGEVNMLLDEHIRQVESRIGALLELKHHLVELREACSGARPAQSCGILQGLSDCVCDTRGTTAHPSD [V16C V46C]	0.0646 ± 0.0017	0.066 ± 0.0025	0.0632 ± 0.0019
MNIQIGELAKRTACPVVTIRFYEQVGLLPPPGRSRGNFRLYGEEHVERLQFIRHCRSLDMPLSDVRTLLSYRKRPDQDCGEVNMLLDEHIRQVESRIGALLELKHHLVELMEACSGARPAQSCGILQGLSDCVCDTRGTTAHPSD [E25V R111M]	0.063 ± 0.0024	0.0654 ± 0.0053	0.152 ± 0.0061
MNIQIGELAARTACPVVTIRFYEQEGLLPPPGRSRGNFRLYGEEHTERLQFIRHCRSLDMPLSDVRTLLSYRKRPDQDCGEVNMLLDEHIRQVESRIGALLELKHHLVELREACSGARPAQSCGILQGLSDCVTDTRGTTAHPSD [K10A V46T C134T]	0.0627 ± 0.0013	0.0699 ± 0.0061	0.226 ± 0.021
MNIQIGELAKRTACPNVTIRFYEQEGLLPPPGRSRGNFRLYGEEHVERLQFIRHCRSADMPLSDVRTLLSYRKRPDQDCGEVNMLLDEHIRQVESRIGALLELKHHLVELREACSGARPAQSCGILQGLSDCVCDTRGTTAHPSD [V16N L58A]	0.0597 ± 0.0018	0.0608 ± 0.00073	0.0591 ± 0.0024
MNIQIGELAKRTACPVVTIRFYEQEGLVPPPGRSRGNFRLYGEEHVERLQFIRHCRSLDMPLSDVRTLLSYRKRPDQDCGEVNMLLDEHIRQVESRIGALLELKHHLVELREACSGARPAQSCGILQGLSDCVTDTRGTTAHPSD [L28V C134T]	0.06536 ± 0.00042	0.0943 ± 0.0028	0.646 ± 0.022
MNIQIGELAKRTACPSVTIRFYEQEGLLPPPGRSRGNFRLYGEEHVERLQFIRHCRSLDMNLSDVRTLLSYRKRPDQDCGEVNMLLDEHIRQVESRIGALLELKHHLVELREACSGARPAQSCGILQGLSDCVCDTRGTTAHPSD [V16S P61N]	0.074 ± 0.00097	0.114 ± 0.021	0.612 ± 0.11
MNIQIGELAKRTACPCVTIRFYEQEGLLPPPGRSRGNFRLYGEEHVERLQFIRHCRSLDMPLSDVRTLLSYRKRPDQDCGEVNMLLDEHIRQVESRIGALLELVHHLVELREACSGARPAQSCGILQGLSDCVCDTRGTTAHPSD [V16C K104V]	0.0623 ± 0.0024	0.0778 ± 0.0038	0.0911 ± 0.012
MNIQIGELAKRTACPTVTIRFYEQEGLLPPPGRSRGNFRLYGEEHVERLQFIRHCRSLDMPLSDVRTLLSYRKRPDQDCGEVNMLLDEHIRQVESRIGALLELVHHLVELREACSGARPAQSCGILQGLSDCVCDTRGTTAHPSD [V16T K104V]	0.0693 ± 0.0019	0.105 ± 0.0073	0.497 ± 0.034
MNIQIGELAKRTACPVVTIWFYEQEGLLPPPGRSRGNFRLYGEEHVERLQFIRHCRSLDMPLSDVRTLLSYRKRPDQDCGEVNMLLDEHIRQVESRIGALLELKHHLVELLEACSGARPAQSCGILQGLSDCVCDTRGTTAHPSD [R20W R111L]	0.06866 ± 0.00056	0.0663 ± 0.0045	0.0727 ± 0.0011
MNGQIGELAKRTACPVVTIRFYEQEGLLPPPGRSRGNFRLYGEEHVERLQFIRHCRSLDMPLSDVRTLLSYRKRPDQDCGEVNMLLDEHIRQVESRIGALLELVHHLVELREACSGARPAQSCGILQGLSDCVCDTRGTTAHPSD [I3G K104V]	0.0618 ± 0.0017	0.06841 ± 0.00056	0.0899 ± 0.0043
MNMQIGELAKRTACPVVTIRFYEQEGLLPPPGRSRGNFRLYGEEHVERLQFIRHCRSLDMPLSDVRTLLSYRKRPDQDCGEVNMLLDEHIRQVESRIGALLELKHHLVELREACSGARPAQSCGILQGLSCCVCDTRGTTAHPSD [I3M D131C]	0.066 ± 0.0019	0.102 ± 0.016	0.446 ± 0.039
